Results as given in US20200399332A1 (published 2020).

B1: wild-type mouse recombinant AIM (other)
chain: VQLVGGAHRCEGRVEVEHNGQWGTVCDDGWDRRDVAVVCRELNCGAVIQTPRGASYQPPASEQRVLIQGVDCNGTEDTLAQCELNYDVFDCSHEEDAGAQCENPDSDLLFIPEDVRLVDGPGHCQGRVEVLHQSQWSTVCKAGWNLQVSKVVCRQLGCGRALLTYGSCNKNTQGKGPIWMGKMSCSGQEANLRSCLLSRLENNCTHGEDTWMECEDPFELKLVGGDTPCSGRLEVLHKGSWGSVCDDNWGEKEDQVVCKQLGCGKSLHPSPKTRKIYGPGAGRIWLDDVNCSGKEQSLEFCRHRLWGYHDCTHKEDVEVICTDFDV
notes: Secreted from HEK293 / HEK293T cells; also called wild-type mouse rAIM; mouse rAIM
B2: mutant mouse AIM 2CS (cysteine 168 of SEQ ID NO: 2 substituted with serine) (other)
chain: VQLVGGAHRCEGRVEVEHNGQWGTVCDDGWDRRDVAVVCRELNCGAVIQTPRGASYQPPASEQRVLIQGVDCNGTEDTLAQCELNYDVFDCSHEEDAGAQCENPDSDLLFIPEDVRLVDGPGHCQGRVEVLHQSQWSTVCKAGWNLQVSKVVCRQLGCGRALLTYGSSNKNTQGKGPIWMGKMSCSGQEANLRSCLLSRLENNCTHGEDTWMECEDPFELKLVGGDTPCSGRLEVLHKGSWGSVCDDNWGEKEDQVVCKQLGCGKSLHPSPKTRKIYGPGAGRIWLDDVNCSGKEQSLEFCRHRLWGYHDCTHKEDVEVICTDFDV
notes: Expressed transiently in HEK293T cells; also called 2CS mouse rAIM
B3: mutant human AIM 2CS (cysteine 168 of SEQ ID NO: 1 substituted with serine) (other)
chain: VRLVGGLHRCEGRVEVEQKGQWGTVCDDGWDIKDVAVLCRELGCGAASGTPSGILYEPPAEKEQKVLIQSVSCTGTEDTLAQCEQEEVYDCSHDEDAGASCENPESSFSPVPEGVRLADGPGHCKGRVEVKHQNQWYTVCQTGWSLRAAKVVCRQLGCGRAVLTQKRSNKHAYGRKPIWLSQMSCSGREATLQDCPSGPWGKNTCNHDEDTWVECEDPFDLRLVGGDNLCSGRLEVLHKGVWGSVCDDNWGEKEDQVVCKQLGCGKSLSPSFRDRKCYGPGVGRIWLDNVRCSGEEQSLEQCQHRFWGFHDCTHQEDVAVICSG
notes: Expressed transiently in HEK293T cells; also called 2CS human rAIM
B4: mutant human AIM 2/3CS (cysteines 168 and 277 of SEQ ID NO: 1 substituted with serine) (other)
chain: VRLVGGLHRCEGRVEVEQKGQWGTVCDDGWDIKDVAVLCRELGCGAASGTPSGILYEPPAEKEQKVLIQSVSCTGTEDTLAQCEQEEVYDCSHDEDAGASCENPESSFSPVPEGVRLADGPGHCKGRVEVKHQNQWYTVCQTGWSLRAAKVVCRQLGCGRAVLTQKRSNKHAYGRKPIWLSQMSCSGREATLQDCPSGPWGKNTCNHDEDTWVECEDPFDLRLVGGDNLCSGRLEVLHKGVWGSVCDDNWGEKEDQVVCKQLGCGKSLSPSFRDRKSYGPGVGRIWLDNVRCSGEEQSLEQCQHRFWGFHDCTHQEDVAVICSG
notes: Expressed transiently in HEK293T cells
B5: mutant human AIM 3CS (cysteine 277 of SEQ ID NO: 1 substituted with serine) (other)
chain: VRLVGGLHRCEGRVEVEQKGQWGTVCDDGWDIKDVAVLCRELGCGAASGTPSGILYEPPAEKEQKVLIQSVSCTGTEDTLAQCEQEEVYDCSHDEDAGASCENPESSFSPVPEGVRLADGPGHCKGRVEVKHQNQWYTVCQTGWSLRAAKVVCRQLGCGRAVLTQKRCNKHAYGRKPIWLSQMSCSGREATLQDCPSGPWGKNTCNHDEDTWVECEDPFDLRLVGGDNLCSGRLEVLHKGVWGSVCDDNWGEKEDQVVCKQLGCGKSLSPSFRDRKSYGPGVGRIWLDNVRCSGEEQSLEQCQHRFWGFHDCTHQEDVAVICSG
notes: Expressed transiently in HEK293T cells; also called 3CS human rAIM
B6: wild-type human recombinant AIM (apoptosis inhibitor of macrophage, CD5L) (other)
chain: VRLVGGLHRCEGRVEVEQKGQWGTVCDDGWDIKDVAVLCRELGCGAASGTPSGILYEPPAEKEQKVLIQSVSCTGTEDTLAQCEQEEVYDCSHDEDAGASCENPESSFSPVPEGVRLADGPGHCKGRVEVKHQNQWYTVCQTGWSLRAAKVVCRQLGCGRAVLTQKRCNKHAYGRKPIWLSQMSCSGREATLQDCPSGPWGKNTCNHDEDTWVECEDPFDLRLVGGDNLCSGRLEVLHKGVWGSVCDDNWGEKEDQVVCKQLGCGKSLSPSFRDRKCYGPGVGRIWLDNVRCSGEEQSLEQCQHRFWGFHDCTHQEDVAVICSG
notes: Secreted from HEK293 / HEK293T cells; also called wild-type human rAIM; human rAIM

Key:
[1] = molecular target: the molecule itself; assay: self-association; non-reducing SDS-PAGE, CBB staining
From the text: The recovered culture supernatant was applied to an antibody column obtained by immobilizing mouse anti-human AIM monoclonal antibody (clone 7, autologously manufactured) on HiTrap NHS-activated HP column (GE Healthcare Life Sciences) to purify human rAIM. The human rAIM bound to the antibody column was eluted with 0.1 M glycine-HCl (pH2.5), and immediately neutralized with 1 M Tris-HCl (pH 8.5) to obtain human rAIM eluate. The buffer in the eluate was substituted with Dulbecco's Phosphate-Buffered Saline (DPBS) by using Amicon Ultra filter concentrators (Millipore) to perform concentration. The protein level of the human rAIM concentrate was quantified using Bcinchoninic acid (BCA) assay (Pierce), and the final concentration was adjusted to 2.0 mg/mL with DPBS. The wild-type human rAIM protein (1 μg) purified and concentrated as mentioned above was separated under non-reducing conditions by polyacrylamide gel electrophoresis (SDS-PAGE) based on the difference in the molecular weights, Coomassie Brilliant Blue (CBB) staining was performed, and wild-type human rAIM was detected.
The wild-type mouse rAIM was prepared as follows. […] The protein level of the mouse rAIM concentrate was quantified using BCA assay, and the final concentration was adjusted to 2.0 mg/mL with DPBS. […]

[2] = molecular target: the molecule itself; assay: self-association; non-reducing SDS-PAGE, Oriole staining, 100 ng
[3] = molecular target: the molecule itself; assay: self-association; non-reducing SDS-PAGE, Oriole staining
From the text: To verify the possibility of the cysteine at amino acid number 168 and the cysteine at amino acid number 277 of wild-type human AIM shown in SEQ ID NO: 1 being involved in the multimerization of wild-type human rAIM, the inventors prepared mutant human rAIM in which the above-mentioned cysteines are substituted with different amino acids. First, to maintain the function of wild-type human rAIM, the amino acid to be used for substitution was studied. Since cysteine is hydrophilic (hydrogen bond can be formed), electric charge 0, and non-aromatic, serine, threonine, asparagine, glutamine were selected as 4 similar amino acids. […] The mutant human rAIM was prepared as follows. […] The purified and concentrated wild-type, 2CS, 3CS, 2/3CS human rAIM proteins, each 100 ng, were separated by SDS-PAGE under non-reducing conditions based on the difference in the molecular weights, Oriole staining was performed, and each human rAIM protein was detected.

Protein | binding result [1] | binding result [2] | binding result [3]
B1 | binds | – | –
B2 | – | no binding | –
B3 | – | – | binds
B4 | – | no binding | –
B5 | – | – | binds
B6 | binds | – | –
